Measurements reported in patent publication US20050100554A1 (published 2005).

What was measured:
ribosomal protein L13 = molecular target: T1, ribosomal protein L13 (human, UniProt P26373 1-211); assay: Y2H; INT ID 396
T1 construct: also called RPL13; cbe_1380530

[1] = molecular target: T2, catenin (cadherin-associated protein), delta 2 (neural plakophilin-related arm-repeat protein) (human, UniProt Q9UQB3 1-1225); assay: Y2H; INT ID 397
T2 construct: also called CTNND2; cbe_1796502
T2 sequence: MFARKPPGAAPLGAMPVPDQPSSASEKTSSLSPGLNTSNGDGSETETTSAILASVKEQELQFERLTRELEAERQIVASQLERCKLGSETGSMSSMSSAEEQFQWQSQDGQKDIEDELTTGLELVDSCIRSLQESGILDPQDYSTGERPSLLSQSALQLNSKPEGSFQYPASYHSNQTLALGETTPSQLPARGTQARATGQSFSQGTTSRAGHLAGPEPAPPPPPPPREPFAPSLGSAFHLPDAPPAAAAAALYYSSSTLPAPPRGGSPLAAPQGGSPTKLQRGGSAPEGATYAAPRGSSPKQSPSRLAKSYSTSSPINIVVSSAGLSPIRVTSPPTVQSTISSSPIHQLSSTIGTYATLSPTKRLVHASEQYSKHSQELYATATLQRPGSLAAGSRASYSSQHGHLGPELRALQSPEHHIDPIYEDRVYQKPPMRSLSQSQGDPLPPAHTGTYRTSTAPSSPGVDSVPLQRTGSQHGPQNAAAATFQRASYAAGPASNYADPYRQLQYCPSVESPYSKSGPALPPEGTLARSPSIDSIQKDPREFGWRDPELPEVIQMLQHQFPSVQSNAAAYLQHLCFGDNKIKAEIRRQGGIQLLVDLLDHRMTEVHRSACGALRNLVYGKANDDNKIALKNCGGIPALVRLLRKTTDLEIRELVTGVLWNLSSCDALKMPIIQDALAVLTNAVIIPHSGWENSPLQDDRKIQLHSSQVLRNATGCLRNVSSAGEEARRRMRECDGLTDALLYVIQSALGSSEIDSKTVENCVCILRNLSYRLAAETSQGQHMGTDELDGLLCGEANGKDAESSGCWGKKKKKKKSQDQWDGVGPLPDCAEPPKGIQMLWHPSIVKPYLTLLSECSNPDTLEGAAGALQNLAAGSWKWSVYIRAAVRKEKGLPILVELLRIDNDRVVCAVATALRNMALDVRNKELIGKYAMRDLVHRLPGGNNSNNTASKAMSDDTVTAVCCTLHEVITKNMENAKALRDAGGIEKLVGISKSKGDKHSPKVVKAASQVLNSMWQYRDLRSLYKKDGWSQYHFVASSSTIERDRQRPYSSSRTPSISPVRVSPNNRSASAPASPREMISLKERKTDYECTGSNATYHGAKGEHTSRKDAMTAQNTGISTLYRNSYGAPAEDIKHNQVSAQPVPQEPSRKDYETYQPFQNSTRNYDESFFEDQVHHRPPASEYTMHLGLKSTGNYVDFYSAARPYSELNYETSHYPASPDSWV

Prey2313 = molecular target: T3, Prey2313 (human, UniProt Q8WV44 21-380); assay: Y2H; INT ID 399
T3 construct: also called Homo sapiens, clone IMAGE: 3625550, mRNA, partial cds; cbe_2685998
T3 sequence: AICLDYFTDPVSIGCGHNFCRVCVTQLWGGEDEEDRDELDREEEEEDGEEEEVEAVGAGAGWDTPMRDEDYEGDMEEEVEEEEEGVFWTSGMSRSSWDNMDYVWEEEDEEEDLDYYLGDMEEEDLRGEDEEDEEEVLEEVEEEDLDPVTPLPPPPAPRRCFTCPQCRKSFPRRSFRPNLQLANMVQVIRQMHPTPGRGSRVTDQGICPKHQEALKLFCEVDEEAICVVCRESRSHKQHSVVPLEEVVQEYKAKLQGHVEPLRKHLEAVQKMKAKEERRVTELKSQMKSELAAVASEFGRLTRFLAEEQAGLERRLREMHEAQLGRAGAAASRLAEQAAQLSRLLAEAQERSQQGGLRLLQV

[2] = molecular target: T4, tumor necrosis factor, alpha-induced protein 1 (endothelial) (human, UniProt Q13829 1-316); assay: Y2H; INT ID 402
T4 construct: also called TNFAIP1; cbe_3705944
T4 sequence: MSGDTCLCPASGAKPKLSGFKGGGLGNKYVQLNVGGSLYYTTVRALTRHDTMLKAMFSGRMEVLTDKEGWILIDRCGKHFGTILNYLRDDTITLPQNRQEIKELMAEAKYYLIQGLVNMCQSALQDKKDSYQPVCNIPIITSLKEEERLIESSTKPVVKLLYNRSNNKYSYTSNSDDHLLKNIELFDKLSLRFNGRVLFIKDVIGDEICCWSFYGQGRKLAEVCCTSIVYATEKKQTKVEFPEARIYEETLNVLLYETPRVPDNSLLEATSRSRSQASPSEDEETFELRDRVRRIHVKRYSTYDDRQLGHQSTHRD

Measured: binding result

B1: Human Papillomavirus 1a E1-E4 (other)
chain: MADNKAPQGLLGLLQYTPTTQPYPRVTPPSNRRPSTTPNSQDRGRPRRSDKDSRKHLYADGLTDGEDPEVPEVEDEEKENQRPLGHPDLSLLRETLEVYTQRLKRDILQDLDDFCRKLGIHPWSV
notes: also called HPV 1a E1-E4; cbe_251740
binds: ribosomal protein L13 | [1] | Prey2313 | [2]
